The target in the assay is T1, taxol-stabilized microtubules, P02550.
T1 chain: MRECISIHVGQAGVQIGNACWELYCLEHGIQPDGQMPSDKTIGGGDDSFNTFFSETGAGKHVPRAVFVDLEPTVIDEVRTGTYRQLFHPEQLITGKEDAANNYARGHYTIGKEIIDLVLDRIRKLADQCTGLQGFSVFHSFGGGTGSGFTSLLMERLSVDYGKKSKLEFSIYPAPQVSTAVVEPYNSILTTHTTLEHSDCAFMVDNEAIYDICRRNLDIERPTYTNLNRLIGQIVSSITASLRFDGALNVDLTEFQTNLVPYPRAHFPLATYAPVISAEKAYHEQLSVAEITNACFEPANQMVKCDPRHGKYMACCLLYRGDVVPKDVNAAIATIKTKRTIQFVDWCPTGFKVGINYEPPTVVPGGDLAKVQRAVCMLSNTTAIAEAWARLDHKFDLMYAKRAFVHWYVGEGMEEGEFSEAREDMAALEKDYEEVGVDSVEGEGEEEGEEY
As to the kind of experiment: GST pull-down of microtubules, quantified tubulin band intensity. The settings on record: chain shown with the change; BRB80 buffer at room temperature; n=3; parent: est. 27; read off a plot.

For one molecule, response (relative intensity (GST = 1.0)) results are on record in article PMC6744678.

B1: GST-tagged full-length (1-314 aa) CCDC74B M67N; L68N; A69N; L71N; L230N; L233N; L234N (protein)
chain: MSGAGVAAGTRPPSSPTPGSRRRRQRPSVGVQSLRPQSPQLRQSDPQKRNLDLEKSLQFLQQQHSENNNKNHEEIEHLKRENKDLRYKLIMNQTSQKKDSLSTSSFQSVKSISNSGKARPQPGSFNKQDSKADVPQKADLEEEPLLHNSKLDKVPGVQGQARKEKAEASNAGAACMGNSQHQGRQMGAAAHPPMILPLPLRKPTTLRQCEVLIRELWNTNLLQTQELQHNKSNNEGSQRPQAVPEEASFPRDQEATHFPKVSTKSLSKKCLLLSPPVAERAILPALKQTPKNNFAERQKRLQAMQKRRLHRSVL
As for B1, the response (relative intensity (GST = 1.0)) came out at 25.
